According to article PMC5663884, “Compositional and expression analyses of the glideosome during the Plasmodium life cycle reveal an additional myosin light chain required for maximum motility” (The Journal of Biological Chemistry, 2017):
Residues, ends and D or L forms follow the SMILES beside them. *: point of attachment. Biotin = O=C1N[C@H]2[C@H](CS[C@H]2CCCCC(=O)*)N1

How the values were obtained:
PfELC = target: T1, PfELC (Plasmodium falciparum, UniProt Q8IJM4); assay: biolayer interferometry binding of PfELC to immobilized MyoA neck peptides; design: species or system P. falciparum; settings: 25 °C, pH 8.0, PfELC 0.04–5 μM
T1 construct: His tag (N); made in house; host or cells: E. coli BL21 (DE3)
Description: Overlapping peptides representing amino acids Gln^770–Ala^787, Ala^786–Ser^803, and Ile^801–Gln^818 of the PfMyoA neck were synthesized by Mimotopes with biotin at the N terminus. […] The C termini of the peptides were capped with an amide to remove unnatural charge, apart from peptide 801–818, which was left as a free acid.
P. falciparum ELC binding to peptides was analyzed by biolayer interferometry using the Octet Red system (ForteBio) at 25 °C in 96-well microplates, as described previously ([63]). All assays were performed in 100 mM Tris-HCl, pH 8.0, containing 0.005% (v/v) Tween 20, according to the manufacturer's instructions. A baseline was established over 4 min, and biotinylated peptides (0.4 μg/ml) were loaded onto streptavidin sensors for 10 min. The sensors were washed for 4 min and then incubated with PfELC at different concentrations (0.04–5 μM) for 800 s. The data were analyzed to calculate a dissociation constant (Kd) using non-linear regression with a one-site binding model and a least-squares fit (GraphPad Prism version 6).

[1] = circular dichroism of recombinant PfELC; assay type: physicochemical
Description: Far-UV CD spectra were recorded on a Jasco J-815 spectropolarimeter fitted with a cell holder thermostatted by a CDF-426S Peltier unit. CD measurements were made at a protein concentration of 10 μM PfELC in 25 mM Tris-HCl, pH 8.0, 50 mM NaCl using fused silica cuvettes with a 1-mm path length (Hellma). All spectra were recorded with 0.1 nm resolution and baseline-corrected by subtraction of the buffer spectrum. Secondary structure content was estimated using methods described by Sreerama and Woody ([62]).

MyoB complex = assay: immunoprecipitation with GFP-specific antibodies, Western blot: MyoB-GFP; assay type: binding, P. falciparum; settings: schizont lysate, probed with anti-PfELC antibodies
Description: (§1) Parasite lysates were precleared by incubation with blocked agarose beads for 1 h, and then the supernatant was incubated with GFP-Trap agarose beads for 2 h at 4 °C with end-over-end rotation. […] Finally, the beads were resuspended in 5 volumes of 2× SDS-PAGE sample buffer and boiled for 5 min before fractionation of the proteins by SDS-PAGE.

MTIP = settings: 3D7 schizont or merozoite lysate, PfELC-specific antibodies
MyoA = assay: immunoprecipitation with GFP-specific antibodies, Western blot: MyoA-GFP; assay type: binding, P. falciparum; settings: schizont lysate, probed with anti-PfELC antibodies
Description: as §1

[2] = target: T2, Recombinant His-tagged PfELC (E. coli) (P. falciparum, UniProt Q8IJM4 1-134); assay: BLI; settings: both partners purified
T2 construct: also called His-PfELC; His-ELC; source: E. coli BL21 (DE3), purified (nickel-nitrilotriacetic acid-agarose)
T2 sequence: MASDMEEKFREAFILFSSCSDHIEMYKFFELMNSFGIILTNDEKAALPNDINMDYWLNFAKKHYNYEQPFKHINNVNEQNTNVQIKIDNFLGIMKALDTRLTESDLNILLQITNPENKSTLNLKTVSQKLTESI

actin = assay: optical tweezer-based single-molecule acto-MyoA interaction; assay type: biochemical
Description: MyoA was expressed in a wheat germ cell-free protein synthesis system (ENDEXT® Technology, CellFree Sciences) ([64]). Recombinant plasmid DNA using recodonized template DNA was amplified using specific primers and cloned into the vector pEU-E01G-TEV-N1 to express N-terminal GST-tagged protein. For the in vitro transcription reaction, 2 μg of DNA was added to a transcription premix (11.5 μl of nuclease-free water, 1× transcription buffer, 2.5 mM NTP mix, 1 unit/μl RNase inhibitor, 1 unit/μl SP6 RNA polymerase) in a total volume of 20 μl and incubated at 37 °C for 6 h, according to the manufacturer's instructions. The quality of mRNA produced was monitored by gel electrophoresis. The bilayer reaction system (CellFree Sciences) was used to translate mRNA into protein. mRNA (10 μl) was added to 10 μl of wheat germ extract (WEPRO® 1240) supplemented with 40 ng/μl creatine kinase and carefully transferred directly below the SUB-AMIX solution (0.3 mM of each L-amino acid, 100 mM potassium acetate, 2.7 mM magnesium acetate, 16 mM disodium creatine phosphate, 0.4 mM spermidine, 1.2 mM ATP, 0.25 mM GTP, 4 mM dithiothreitol, and 30 mM HEPES-KOH (pH 7.8)) and incubated for 20 h at 15–16 °C. Soluble GST-tagged MyoA was purified using glutathione-Sepharose beads (GE Healthcare); supernatant was incubated with the resin for 2 h at 4 °C, followed by extensive washing with 20 mM Tris-HCl, pH 8.0, 250 mM NaCl, 0.5 mM TCEP. The beads were resuspended in 3 volumes of 20 mM Tris-HCl, pH 8.0, 100 mM NaCl, 10 mM reduced glutathione to elute the GST-tagged protein. This was followed by buffer exchange into PBS on a PD10 column (GE Healthcare).
The optical tweezer assay, developed to measure the force and movement produced by individual myosin molecules interacting with an actin filament, was used in the well-established three-bead format with the experimental conditions as described ([65][–][67]). The experimental apparatus is based around a Zeiss inverted microscope, and experiments were performed in a flow-cell chamber created using a microscope slide and coverslip. […] Interactions between the surface-bound MyoA and the actin filament were recorded by monitoring movement of the beads held in the optical tweezers using two 4-quadrant, photodiode detectors. […] Individual events were then automatically detected by measuring changes in amplitude of the imposed triangular oscillation, and event amplitudes were histogrammed. Data were acquired and saved to computer memory using custom software, with a sampling rate of 10 kHz, and later analyzed using IgorPro software (WaveMetrics Inc., Lake Oswego, OR). Individual acto-MyoA force-producing events were identified as described previously ([65]), and the MyoA power-stroke amplitude and kinetics were analyzed by histogram analysis of the data.

[3] = far-UV CD, 10 μM PfELC, 25 mM Tris-HCl pH 8.0, 50 mM NaCl

## CC[C@H](C)[C@H](NC(=O)[C@H](C)NC(=O)[C@H](C)NC(=O)CNC(=O)[C@H](CO)NC(=O)CNC(=O)[C@H](CO)NC(=O)CCCC[C@@H]1SC[C@@H]2NC(=O)N[C@@H]21)C(=O)N[C@@H](CC(C)C)C(=O)N[C@@H](CCCCN)C(=O)N[C@@H](Cc1c[nH]cn1)C(=O)N[C@@H](CCCCN)C(=O)N[C@@H](Cc1ccc(O)cc1)C(=O)N[C@@H](CCCCN)C(=O)N[C@@H](CCC(N)=O)C(=O)N[C@@H](CCCCN)C(=O)N[C@H](C(=O)N[C@@H](CC(N)=O)C(=O)N[C@@H](CCCCN)C(=O)N[C@@H](CC(N)=O)C(=O)N[C@H](C(=O)N1CCC[C@H]1C(=O)N[C@@H](CO)C(N)=O)[C@@H](C)CC)C(C)C [786–803] (Biotin-SGSGAAILKHKYKQKVNKNIPS-NH2)
PfELC
  binding to PfELC (in words): binds strongly to PfELC

## essential light chain [PfELC]
[1]; 1 mM calcium ions
  effect of calcium on near- or far-UV CD spectrum: no effect on either the near- or far-UV spectrum
[1]; [3]
  turn content: 20%
  α helix content: 32%
  β sheet content: 17%
MyoB complex
  presence in MyoB-GFP immunoprecipitate: none was detected associated with the MyoB complex
MTIP
  presence in anti-MTIP immunoprecipitate: present with MTIP in the same complex
MyoA
  presence in MyoA-GFP immunoprecipitate: a 14-kDa protein associated with MyoA in the glideosome complex

## peptide 770–787: biotinylated PfMyoA neck peptide Gln770–Ala787 with SGSG linker, C-terminal amide (Biotin-SGSGQREKLVEWENCVSVIEAA-NH2; SMILES CC[C@H](C)[C@H](NC(=O)[C@@H](NC(=O)[C@H](CO)NC(=O)[C@@H](NC(=O)[C@H](CS)NC(=O)[C@H](CC(N)=O)NC(=O)[C@H](CCC(=O)O)NC(=O)[C@H](Cc1c[nH]c2ccccc12)NC(=O)[C@H](CCC(=O)O)NC(=O)[C@@H](NC(=O)[C@H](CC(C)C)NC(=O)[C@H](CCCCN)NC(=O)[C@H](CCC(=O)O)NC(=O)[C@H](CCCNC(=N)N)NC(=O)[C@H](CCC(N)=O)NC(=O)CNC(=O)[C@H](CO)NC(=O)CNC(=O)[C@H](CO)NC(=O)CCCC[C@@H]1SC[C@@H]2NC(=O)N[C@@H]21)C(C)C)C(C)C)C(C)C)C(=O)N[C@@H](CCC(=O)O)C(=O)N[C@@H](C)C(=O)N[C@@H](C)C(N)=O; UniProt Q8IDR3 770-787, looked up, fragment)
PfELC
  binding to PfELC (in words): no observable binding
PfELC; listed as MyoA 770–787
  binding to PfELC (in words): no binding

B1: Biotinylated PfMyoA neck peptide 801–818 (peptide)
peptide: Biotin-SGSGIPSLLRVQAHIRKKMVAQ-OH
SMILES: CC[C@H](C)[C@H](NC(=O)[C@H](Cc1c[nH]cn1)NC(=O)[C@H](C)NC(=O)[C@H](CCC(N)=O)NC(=O)[C@@H](NC(=O)[C@H](CCCNC(=N)N)NC(=O)[C@H](CC(C)C)NC(=O)[C@H](CC(C)C)NC(=O)[C@H](CO)NC(=O)[C@@H]1CCCN1C(=O)[C@@H](NC(=O)CNC(=O)[C@H](CO)NC(=O)CNC(=O)[C@H](CO)NC(=O)CCCC[C@@H]1SC[C@@H]2NC(=O)N[C@@H]21)[C@@H](C)CC)C(C)C)C(=O)N[C@@H](CCCNC(=N)N)C(=O)N[C@@H](CCCCN)C(=O)N[C@@H](CCCCN)C(=O)N[C@@H](CCSC)C(=O)N[C@H](C(=O)N[C@@H](C)C(=O)N[C@@H](CCC(N)=O)C(=O)O)C(C)C
notes: source: synthetic peptide (Mimotopes)
[2]
  Kd: 320 nM

B2: Biotinylated PfMyoA neck peptide 786–803 (peptide)
peptide: Biotin-SGSGAAILKHKYKQKVNKNIPS-NH2
SMILES: CC[C@H](C)[C@H](NC(=O)[C@H](C)NC(=O)[C@H](C)NC(=O)CNC(=O)[C@H](CO)NC(=O)CNC(=O)[C@H](CO)NC(=O)CCCC[C@@H]1SC[C@@H]2NC(=O)N[C@@H]21)C(=O)N[C@@H](CC(C)C)C(=O)N[C@@H](CCCCN)C(=O)N[C@@H](Cc1c[nH]cn1)C(=O)N[C@@H](CCCCN)C(=O)N[C@@H](Cc1ccc(O)cc1)C(=O)N[C@@H](CCCCN)C(=O)N[C@@H](CCC(N)=O)C(=O)N[C@@H](CCCCN)C(=O)N[C@H](C(=O)N[C@@H](CC(N)=O)C(=O)N[C@@H](CCCCN)C(=O)N[C@@H](CC(N)=O)C(=O)N[C@H](C(=O)N1CCC[C@H]1C(=O)N[C@@H](CO)C(N)=O)[C@@H](C)CC)C(C)C
notes: as for B1
[2]
  Kd: 480 nM

B3: Myosin A (protein)
chain: MAVTNEEIKTASKIVRRVSNVEAFDKSGSVFKGYQIWTDISPTIENDPNIMFVKCVVQQGSKKEKLTVVQIDPPGTGTPYDIDPTHAWNCNSQVDPMSFGDIGLLNHTNIPCVLDFLKHRYLKNQIYTTAVPLIVAINPYKDLGNTTNEWIRRYRDTADHTKLPPHVFTCAREALSNLHGVNKSQTIIVSGESGAGKTEATKQIMRYFASSKSGNMDLRIQTAIMAANPVLEAFGNAKTIRNNNSSRFGRFMQLVISHEGGIRYGSVVAFLLEKSRIITQDDNERSYHIFYQFLKGANSTMKSKFGLKGVTEYKLLNPNSTEVSGVDDVKDFEEVIESLKNMELSESDIEVIFSIVAGILTLGNVRLIEKQEAGLSDAAAIMDEDMGVFNKACELMYLDPELIKREILIKVTVAGGTKIEGRWNKNDAEVLKSSLCKAMYEKLFLWIIRHLNSRIEPEGGFKTFMGMLDIFGFEVFKNNSLEQLFINITNEMLQKNFVDIVFERESKLYKDEGISTAELKYTSNKEVINVLCEKGKSVLSYLEDQCLAPGGTDEKFVSSCATNLKENNKFTPAKVASNKNFIIQHTIGPIQYCAESFLLKNKDVLRGDLVEVIKDSPNPIVQQLFEGQVIEKGKIAKGSLIGSQFLNQLTSLMNLINSTEPHFIRCIKPNENKKPLEWCEPKILIQLHALSILEALVLRQLGYSYRRTFEEFLYQYKFVDIAAAEDSSVENQNKCVNILKLSGLSESMYKIGKSMVFLKQEGAKILTKIQREKLVEWENCVSVIEAAILKHKYKQKVNKNIPSLLRVQAHIRKKMVAQ
modifications: left off: GST, N-terminal, kept
notes: GST-tagged PfMyoA expressed in wheat germ cell-free system
actin; 0.3 μM Mg·ATP
  rate constant of event lifetimes (single-exponential least-square fit): 6.9 s⁻¹
actin; 8 μM Mg·ATP
  rate constant of event lifetimes (single-exponential least-square fit): 53 s⁻¹
actin; from event lifetimes at 0.3 and 8 μM ATP
  second-order rate constant for Mg·ATP binding and dissociating the acto-MyoA rigor complex: ~1.5e+07 M⁻¹ s⁻¹
actin; shift in mean position of event distribution, 244 acto-MyoA binding events, 2 μM ATP
  working stroke (power stroke): 3 nm
